Target: the molecule itself
Experiment: negative stain electron microscopy

B1: peroxiredoxin PRDX2 (enzyme, human (endogenous in RBCs), UniProt P32119 1-198, looked up)
chain: MASGNARIGKPAPDFKATAVVDGAFKEVKLSDYKGKYVVLFFYPLDFTFVCPTEIIAFSNRAEDFRKLGCEVLGVSVDSQFTHLAWINTPRKEGGLGPLNIPLLADVTRRLSEDYGVLKTDEGIAYRGLFIIDGKGVLRQITVNDLPVGRSVDEALRLVQAFQYTDEHGEVCPAGWKPGSDTIKPNVDDSKEYFSKHN
stoichiometry N: 10

— article PMC9764456 (Cell reports, 2022)
